According to the supplement of paper PMC12667976:

B1: library; numbered along this chain (parent)
chain: MATDAALRRLLRLHRTEIAVAVDSAFPLLHALADHDVVPEDKFQETLHLKEKEGCPQAFHALLSWLLTQDSTAILDFWRVLFKDYNLERYGRLQPILDSFPKDVDLSQPRKGRKPPAVPKALVPPPRLPTKRKASEEARAAAPAALTPRGTASPGSQLKAKPPKKPESSAEQQRLPLGNGIQTMSASVQRAVAMSSGDVPGARGAVEGILIQQVFESGGSKKCIQVGGEFYTPSKFEDSGSGKNKARSSSGPKPLVRAKGAQGAAPGGGEARLGQQGSVPAPLALPSDPQLHQKNEDECAVCRDGGELICCDGCPRAFHLACLSPPLREIPSGTWRCSSCLQATVQEVQPRAEEPRPQEPPVETPLPPGLRSAGEEVRGPPGEPLAGMDTTLVYKHLPAPPSAAPLPGLDSSALHPLLCVGPEGQQNLAPGARCGVCGDGTDVLRCTHCAAAFHWRCHFPAGTSRPGTGLRCRSCSGDVTPAPVEGVLAPSPARLAPGPAKDDTASHEPALHRDDLESLLSEHTFDGILQWAIQSMARPAAPFPS

Variants of: B1
Assay: AIRE transcriptional activation functional score (insulin promoter-GFP; nonsense median 0, synonymous median 1) (normalised score); higher = higher AIRE activity (more reporter activation)
Conditions: with insulin promoter-GFP reporter in HEK293
Method: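 Deep mutational scan of full-length human AIRE (codon-optimized cDNA, DT-POPCode NNN libraries over three regions) integrated at a Bxb1 landing pad in HEK293 cells carrying an insulin core promoter-GFP reporter at a Flp-In site. Cells were sorted for the top 10% GFP about 14 days after transfection. Variant frequency log-ratios (select vs non-select, TileSeq) were rescaled so that the nonsense median is 0 and the synonymous median is 1, then averaged over biological replicates.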

AIRE transcriptional activation functional score: each site, then its substitutions
A186: G 0.548 | H 0.849 | I -0.146 | K 0.646 | L 0.0294 | M 0.198 | N 0.421 | P 0.846 | Q 0.6 | R 0.648 | S 0.95 | T 0.873 | V -0.207 | W 0.156 | Y -0.165
S187: A 0.982 | C 0.918 | D 0.711 | E 0.48 | F -0.0306 | G 0.706 | H 1.28 | I 0.599 | K 0.853 | L 0.063 | M 0.503 | N 0.716 | P 0.621 | Q 0.823 | R 1.18 | T 1.17 | V 0.398 | W 0.0947 | Y 0.152
V188: A 0.635 | C 0.891 | D 0.779 | E 0.556 | F 0.939 | G 0.504 | H 0.687 | I 1.01 | K 0.779 | L 1.24 | M 1.32 | N 0.669 | P 0.629 | Q 0.798 | R 0.52 | S 0.447 | T 0.434 | W 0.518 | Y 1.56
Q189: A 1.25 | C 0.0413 | D 0.724 | E 1.01 | F -0.181 | G 0.415 | H 0.892 | I 0.169 | K 0.969 | L 0.207 | M -0.352 | N 0.838 | P 0.54 | R 0.813 | S 1.21 | T 0.669 | V -0.071 | W -1.03 | Y 0.0452
R190: A 0.878 | C 0.414 | D 0.292 | E 0.705 | F -0.277 | G 0.592 | H 0.858 | I 0.118 | K 0.53 | L 0.356 | M 0.19 | N 1.15 | P 0.955 | Q 1.24 | S 0.821 | T 0.755 | V 0.094 | W 0.069 | Y 0.797
A191: C 1.08 | D 0.948 | E 0.164 | F -0.339 | G 0.958 | H 1.25 | I -0.149 | K 0.485 | L 0.166 | M 0.662 | N 0.144 | P 0.647 | Q 0.489 | R 1.2 | S 1.03 | T 1.27 | V 0.157 | W 0.116 | Y -0.337
V192: A 0.598 | C 0.889 | D 0.613 | E 0.516 | F 0.922 | G 0.777 | H 0.776 | I 1.13 | K 1.14 | L 1.02 | M 1.08 | N 0.244 | P 0.706 | Q 0.811 | R 0.721 | S 0.697 | T 0.917 | W 0.522 | Y 1.19
A193: C 1.39 | D 1.03 | E 0.394 | F 0.268 | G 0.791 | H 1.81 | I 0.281 | K 0.858 | L 0.279 | M 0.563 | N 1.14 | P 0.42 | Q 1.88 | R 0.93 | S 0.899 | T 1.15 | V 0.147 | W -1.35 | Y 1.05
M194: A 0.708 | C 0.639 | D -0.299 | E 0.601 | F 0.394 | G 0.75 | H 0.96 | I 1.08 | K 0.544 | L 0.99 | N 0.73 | P 0.602 | Q 0.907 | R 0.732 | S 0.554 | T 0.367 | V 1.31 | W 0.214 | Y 0.702
S195: A 1.31 | C 0.945 | D 0.8 | E 0.862 | F 0.0295 | G 0.859 | H 0.996 | I 0.0828 | K 0.873 | L 0.116 | M 0.346 | N 0.649 | P 0.83 | Q 0.659 | R 1.13 | T 1.31 | V 0.475 | W -0.0899 | Y 0.427
S196: A 0.621 | C 1.24 | D 0.944 | E 1.06 | F 0.117 | G 0.938 | H 1.01 | I 0.678 | K 0.809 | L 0.512 | M 0.982 | N 0.962 | P 0.792 | Q 1.11 | R 1.16 | T 0.82 | V 1.27 | W 0.394 | Y 0.776
G197: A 0.912 | C 1.17 | D 0.624 | E 0.192 | F 0.852 | H 0.619 | I 1.09 | K 0.734 | L 1.06 | M 0.448 | N 1.26 | P 1.23 | Q 0.484 | R 1.01 | S 1.12 | T 0.444 | V 1.14 | W 0.323 | Y 0.74
D198: A 1.03 | C 0.704 | E 1.2 | F 0.583 | G 1.08 | H 0.856 | I 0.948 | K 0.684 | L 0.549 | M 1.02 | N 1.09 | P 0.58 | Q 0.627 | R 0.663 | S 1.19 | T 1.51 | V 0.978 | W -0.417 | Y 0.99
V199: A 0.731 | C 0.807 | D 0.863 | E 0.905 | F 1.24 | G 1.09 | H 0.599 | I 1.37 | K 0.754 | L 0.982 | M 1.18 | N 0.886 | P 0.723 | Q 0.755 | R 0.735 | S 0.671 | T 0.462 | W 0.623 | Y 1.4
P200: A 0.713 | C 1.43 | D 0.545 | F 0.777 | G 0.879 | H 1.08 | I 0.675 | K 0.571 | L 1.12 | M 1.52 | N 1.12 | Q 1.18 | R 0.99 | S 1.06 | T 0.911 | V 0.795 | Y 0.0754
G201: A 0.802 | C 1.03 | D 0.481 | E 0.791 | F 1.02 | H 1.02 | I 1.23 | K 0.778 | L 1.32 | M 1.67 | N 1.01 | P 0.598 | Q 1.05 | R 0.837 | S 0.809 | T 0.924 | V 0.941 | W 0.489 | Y 1.17
A202: C 1.39 | D 0.687 | E 0.791 | F 0.397 | G 0.818 | H 1 | I 0.93 | K 0.112 | L 0.939 | M 1.19 | N 1.59 | P 0.867 | Q 0.415 | R 1.08 | S 0.848 | T 0.777 | V 1.11 | W 0.488 | Y 1.13
R203: A 1.19 | C 1.82 | E -0.0204 | F 0.572 | G 0.547 | H 0.141 | I 1.2 | K 0.243 | L 1.1 | N 0.0951 | P 1.03 | Q 1.13 | S 0.794 | T 0.744 | V 1.57 | W 0.289 | Y 0.581
